Target: Na+,K+-ATPase α-subunit (endogenous, MDCK cells) (dog (endogenous in MDCK)) (UniProt P50997)
Experiment: co-IP

In the case of “AS160 (endogenous, MDCK cells) (natural protein)”, the fold increase of co-precipitated AS160 with 40 uM Compound C against vehicle was 7 fold.
